In the RNAGym collection of RNA variant scans (doi:10.1073/pnas.2313332121):

B1: TPR t1 (parent)
chain: GACCAAUCUGCCCUCAGAGCUCGAGAACAUCUUCGGAUGCAGAGGAGGCAGGCUUCGGUGGCGCGAUAGCGCCAACGUCCUCAACCUCCAAUGCAUCCCACCACAUGAUGAUGCCUGAAGAGCCUUGGUUUUUUG

Variants of: B1
Assay: polymerase ribozyme fitness, log enrichment relative to wild type (log ratio); higher = more active; in vitro selection for triplet polymerase activity
Summary of the method: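 Each subunit of a heterodimeric triplet polymerase ribozyme was represented by a PCR-built, transcribed mutant library that underwent triplicate single-round in vitro selection with frozen incubation at −7 °C. Extended constructs were recovered by gel excision, streptavidin-bead capture and RT-PCR, and Illumina sequencing of input and output libraries kept genotypes with ≥10 input reads and ≥1 read per output. Fitness is the logarithm of genotype enrichment relative to wild-type enrichment, from inverse-variance-weighted replicate averages, with a logarithm base of 2.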

Variant	polymerase ribozyme fitness (log ratio)
U59C A111C G128C	-3.24
G58C A66G	-0.999
G60C C88U	-0.669
G60U A111C G122C	-0.82
U59A C64U C85A G110U U133C	-2.9
U59G C72G	-2.51
G60A C82A G113A	-0.999
U59G G71U G120C U130A	-4.75
G60C G135U	-1.23
G60C G135A	-1.35
G60C C98U	-0.75
G60C C70A U78A C85G C98U G117C	-6.56
G58C G60U G93U U96G	-1.73
U59A A105C U112C	-0.41
G60A C80U C89U	-2.13
G60A C89U A95U	-1.24
G60A C70U	-1.22
G60A C70A	-3.02
G60A A74G	-2.01
G60C C124U	1
G60A G61C U92C G113A	-3.6
G60U A84G C86U G135C	-0.459
U59A A74U	-0.959
U59A C104A	-1.75

Variant	polymerase ribozyme fitness (log ratio)
U59C C79U C114U	-1.91
G60C C94G U96A A103C	-6.59
U59A U129G	-1.18
G60C G61U	-1.76
G58U G69A A111C	-5.38
U59A G61U G117U	-2.27
G60A G120C G128U	0.061
U59A A91G A100U G113A	-3.07
U59C C80A U81A	-2.03
U59G U78C C115U U130C	-1.13
G60C C102A G110A	-4.88
U59A C62G U87A U129C U130G	-4.15
G60A C79U C80A A121G	-3.77
G60C G61C U81G C115U	-5.37
G58A G60A A68G A100U C115A	-5.02
U59A U81A G107A C114U	-2.96
U59A C89U U106A	-0.429
U59G A68G	-3.01
G60A C73G G110A U112C	-2.14
G60A A105C C115U	-5.65
G60A U87G C102G G113A	-6.32
G60A C72G U131A	-1.09
G58C C94A	-0.207
G58C C97U U116G G135C	-3.26

Variant	polymerase ribozyme fitness (log ratio)
G58U C64U U78C U96C C124U U126C U133G	-0.65
G60C C64G A90G A105C G117C G128A U133C U134G	-4.98
U59A U125A	-0.568
U59A U125G	-0.415
G60A C76U	-1
G60A C76G	-2.57
G60A C73A A91C G113U	-3.43
G60A G63U U87A U92A C102A C115G G128U	-5.66
G60A G93A U131A	-0.952
G60A G120A	0.658
G60A G128C	-2.6
G60A G128U	-1.57
U59G C72U C86A	-2.04
G60C C86A	-2.44
G60C C86U	0.269
G60U A108C C124A	-5.47
U59A G77A C79U U87C C114U	-3.41
G60C U116C	-1.73
G60C C115A	0.199
G60C U132A	-0.171
G58C C97A A103U G120C	-6.84
G60A C86A C98G U109A G117U	-6.71
G58U	-0.329
G58C	0.031

Variant	polymerase ribozyme fitness (log ratio)
U59C U130G	-0.745
G60A G61C G110C	-5.74
G60A C123U	1.14
G58C C70A G77C G117A	-7.23
U59A C104A G110U C115A	-4.57
U59A U116G G120C	-0.387
U59A C62U	0.252
G60C C94U	-0.143
G60C C94G	-1.12
G58C C62U U133A	-0.0723
G60A A111C C123A	-1.91
G58C U81A C123A	-0.0338
G60U A75U G117C	-3.72
G60A C104A	-1.89
U59G C86U U112C	1.02
G60U A91C G93U C104A G117U	-6
G60A C82A U129G	-1.13
U59G C114A	-1.42
U59C A105U	-2.63
G60A C85U	-0.816
U59G C76U G110U	-2.81
G58U C99U G117C U131C	-5.92
U59C A66U C102U C124U	-4.09
U59G G113A A121U C123A	-1.97

Variant	polymerase ribozyme fitness (log ratio)
G60C U133A	-0.621
G60A C80A G113C	-6.39
G60C G120A	0.168
G60C U125A	-0.729
G58U C124A	1.26
G60A C72G U92C G93A	-4.92
U59A A95G U125G	-0.633
U59G C72U C82A G110A	-1.21
G58A G117A G120A U132C	-3.08
U59C G117C	-3.91
U59C G117U	-2.88
G58C G71U C101G U112C U129G	-0.74
G60C A95G G120A U130C	0.59
U59A C76U	-0.808
G60A C72G	-1.01
G60A C101A	-1.57
G58C C62U	-1.01
G58C C62A G69U A119U	-0.99
G60A U131A	0.546
G58C G61U C94A U116A	-3.54
G60A U87A A119G U125C	-0.987
G58A U109A	-4.85
G60A G120U A121C	0.445
G60C U112G C124A	-0.118

Variant	polymerase ribozyme fitness (log ratio)
U59A C62U C82U G120A	0.193
U59C U112A	-0.182
U59G G120U C124U	1.23
G58A G61U	-0.422
G58C C72U C123G G128A	0.86
G58C U116C	-0.944
U59A G60U C89G C97U	-2.98
U59A C89U	-0.0389
G60U A84G G128A	-1.56
U59G C101G C114U	-2.59
U59C C86U G127C	-2.09
G60A U130C	-0.0253
G58C C72U	-0.231
U59G U112G G113A G120U	-4.31
G60C U129G	-1.43
U59A C86G C98U	-3.38
G60A U78A C123U	0.832
G58C A68G C86A C115U	-6.11
G58C C123G	1.75
U59G C73U U87G U116A	-4.15
U59C C94A	-1.01
G60A C82A C85A G120A	-0.412
G60A G71A A90U C94A G110C	-6.47
G60C U78A G110A A111U C124A U133A	-2.76

Variant	polymerase ribozyme fitness (log ratio)
G60U A90C	-1.12
U59G C88U	0.0468
U59G C97A	-4.8
G60C U112G	-0.433
G60C U112A	0.838
U59A G60A C80U A95C G120U	-2.35
U59G G113A	-1.96
G60A G69C C80G G110U G120C	-6.82
G60A C79U C98G C99A C123G	-2.67
G60C C73U	-1.41
G60A U87A	-0.0639
G60A G117A	-1.29
G60U A103C U106G U125A	-5.2
G60C A84U	-0.735
G60U A103G U112G	-6.67
G60A G93C	-1.2
G60A C86A	-0.942
U59G U96A G128A	-2.77
G58U U106C C124U U130A	-0.269
G60A C98A C123U	-5.08
G60A A111U	-3.16
G60A C89U C124A	0.913
U59A G71A A91G A100U G113A	-4.54
